Source: article PMC6072280 (Nuclear medicine and biology, 2018)

How the values were obtained:
[1] = target: GRPR (Homo sapiens, UniProt P30550); conditions: GRPR-expressing human PC-3 cells, 125I-[Tyr4]-BBN, 1 h 37°C
[2] = tested on: PC-3 tumor-bearing SCID mice
[3] = in vivo; conditions: male, ICR-SCID, mouse, iv, total radioactivity; for tissue uptake at 1 h / tissue uptake at 4 h / tissue uptake at 24 h: 20 μCi

Chain of GRPR (P30550 whole entry): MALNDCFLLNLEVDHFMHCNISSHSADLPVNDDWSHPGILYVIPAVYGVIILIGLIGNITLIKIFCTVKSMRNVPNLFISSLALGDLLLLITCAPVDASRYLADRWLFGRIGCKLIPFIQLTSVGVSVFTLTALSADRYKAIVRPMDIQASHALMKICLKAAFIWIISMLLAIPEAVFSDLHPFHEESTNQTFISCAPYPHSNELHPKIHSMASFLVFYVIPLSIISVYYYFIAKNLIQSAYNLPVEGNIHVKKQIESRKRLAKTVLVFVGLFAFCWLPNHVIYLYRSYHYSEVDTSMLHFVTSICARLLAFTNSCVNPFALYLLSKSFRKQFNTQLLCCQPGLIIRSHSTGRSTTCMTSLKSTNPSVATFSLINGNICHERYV

CC(C)C[C@H](NC(=O)C[C@H](O)[C@H](CC(C)C)NC(=O)[C@H](Cc1c[nH]cn1)NC(=O)CNC(=O)[C@@H](NC(=O)[C@H](C)NC(=O)[C@H](Cc1c[nH]c2ccccc12)NC(=O)[C@H](CCC(N)=O)NC(=O)[C@@H](Cc1ccccc1)NC(=O)CCCCCNC(=O)[C@H](CCC(=O)NCCCC[C@@H]1NC(=O)[C@@H](Cc2ccc(O)cc2)NC(=O)[C@H](CC(=O)O)NC(=O)CNC(=O)[C@H](CCCNC(=N)N)NC1=O)NC(=O)CN1CCN(CC(=O)O)CCN(CC(=O)O)CCN(CC(=O)O)CC1)C(C)C)C(N)=O [[RGD-Glu-[DO3A]-6-Ahx-RM2]] [[Cyclo-(Arg-Gly-Asp-DTyr-Lys)-(DO3A)-Glu-(6-Ahx-D-Phe-Gln-Trp-Ala-Val-Gly-His-Sta-Leu-NH2)]]
IC50, PC-3 [1]: single-digit, nanomolar range

CC(C)C[C@H](NC(=O)C[C@H](O)[C@H](CC(C)C)NC(=O)[C@H](Cc1c[nH]cn1)NC(=O)CNC(=O)[C@@H](NC(=O)[C@H](C)NC(=O)[C@H](Cc1c[nH]c2ccccc12)NC(=O)[C@H](CCC(N)=O)NC(=O)[C@@H](Cc1ccccc1)NC(=O)CCCCCNC(=O)[C@H](CCC(=O)NCCCC[C@@H]1NC(=O)[C@@H](Cc2ccc(O)cc2)NC(=O)[C@H](CC(=O)O)NC(=O)CNC(=O)[C@H](CCCNC(=N)N)NC1=O)NC(=O)CN1CCN(CC(=O)O)CCN(CC(=O)O)CCN(CC(=O)O)CC1)C(C)C)C(N)=O [[RGD-Glu-[[^90Y]Y-DO3A]-6-Ahx-RM2], metal not drawn]
Biodistribution, Urine (urinary excretion) ([2]; 4 h p.i., i.v., n = 5): 93.4 %ID | In vivo stability, RP-HPLC of urinary radioactivity ([2]; urine collected from tumor-bearing mice): eluted with a similar retention time | tissue uptake at 1 h ([3]; bone): 0.45 ± 0.08 %ID/g | tissue uptake at 4 h ([3]; bone): 0.29 ± 0.05 %ID/g | tissue uptake at 24 h ([3]; bone): 0.33 ± 0.12 %ID/g | tissue uptake at 1 h ([3]; brain): 0.03 ± 0.01 %ID/g | tissue uptake at 4 h ([3]; brain): 0.01 %ID/g | tissue uptake at 1 h ([3]; heart): 0.31 ± 0.06 %ID/g | tissue uptake at 4 h ([3]; heart): 0.16 ± 0.05 %ID/g | tissue uptake at 24 h ([3]; heart): 0.15 ± 0.04 %ID/g | tissue uptake at 1 h ([3]; kidneys): 2.36 ± 0.49 %ID/g | tissue uptake at 4 h ([3]; kidneys): 1.54 ± 0.31 %ID/g | tissue uptake at 24 h ([3]; kidneys): 0.89 ± 0.21 %ID/g | tissue uptake at 1 h ([3]; large intestine): 0.64 ± 0.12 %ID/g | tissue uptake at 4 h ([3]; large intestine): 0.66 ± 0.26 %ID/g | tissue uptake at 24 h ([3]; large intestine): 0.31 ± 0.06 %ID/g | tissue uptake at 1 h ([3]; liver): 0.39 ± 0.08 %ID/g | tissue uptake at 4 h ([3]; liver): 0.35 ± 0.07 %ID/g | tissue uptake at 24 h ([3]; liver): 0.29 ± 0.15 %ID/g | tissue uptake at 1 h ([3]; lung): 0.8 ± 0.27 %ID/g | tissue uptake at 4 h ([3]; lung): 0.44 ± 0.06 %ID/g | tissue uptake at 24 h ([3]; lung): 0.37 ± 0.1 %ID/g | tissue uptake at 1 h ([3]; muscle): 0.22 ± 0.06 %ID/g | tissue uptake at 4 h ([3]; muscle): 0.11 ± 0.02 %ID/g | tissue uptake at 24 h ([3]; muscle): 0.1 ± 0.03 %ID/g | tissue uptake at 1 h ([3]; pancreas): 6.81 ± 0.92 %ID/g | tissue uptake at 4 h ([3]; pancreas): 0.55 ± 0.12 %ID/g | tissue uptake at 24 h ([3]; pancreas): 0.27 ± 0.05 %ID/g | tissue uptake at 1 h ([3]; small intestine): 1.41 ± 0.32 %ID/g | tissue uptake at 4 h ([3]; small intestine): 0.39 ± 0.09 %ID/g | tissue uptake at 24 h ([3]; small intestine): 0.34 ± 0.07 %ID/g | tissue uptake at 1 h ([3]; spleen): 1.36 ± 0.25 %ID/g | tissue uptake at 4 h ([3]; spleen): 1.07 ± 0.18 %ID/g | tissue uptake at 24 h ([3]; spleen): 1.21 ± 0.23 %ID/g | tissue uptake at 1 h ([3]; stomach): 1.19 ± 0.34 %ID/g | tissue uptake at 4 h ([3]; stomach): 0.33 ± 0.07 %ID/g | tissue uptake at 24 h ([3]; stomach): 0.22 ± 0.03 %ID/g | tissue uptake at 1 h ([3]; tumor (PC-3 xenograft)): 8.7 ± 0.35 %ID/g | tissue uptake at 4 h ([3]; tumor (PC-3 xenograft)): 4.48 ± 0.31 %ID/g | tissue uptake at 24 h ([3]; tumor (PC-3 xenograft)): 5.28 ± 0.12 %ID/g | dose excreted at 1 h ([3]; urine, 20 uCi): 84.6 ± 3.52% | dose excreted at 4 h ([3]; urine, 20 uCi): 93.4 ± 1.26% | dose excreted at 24 h ([3]; urine, 20 uCi): 92.7 ± 2.06% | tissue uptake dose at 1 h ([3]; whole blood, 20 uCi): 0.18 ± 0.04 %ID | tissue uptake dose at 4 h ([3]; whole blood, 20 uCi): 0.01 %ID | tissue uptake dose at 24 h ([3]; whole blood, 20 uCi): 0.01 %ID
